Laboratory results from patent US20080292609A1, “Use of Arginase in Combination with 5FU and Other Compounds for Treatment of Human Malignancies” (priority 2007, published 2008).

What was measured:
[1] = Arginase specific activity; assay type: biochemical; conditions: purified arginase sample, or after pegylation with mPEG-SPA MW 5,000 (mole ratio 1:50)
Description: The purified Arginase as prepared using the methods described above was used for pegylation. Using the previous examples to illustrate the method, an arginase sample with specific activity=518 I.U./mg was dissolved in PBS buffer before carrying out pegylation.
The mPEG-SPA (cat. no. 2M4MOH01, Nektar, USA), MW 5,000 (5.82 g) was added into 555 ml of the purified Arginase (813.64 mg, 1.466 mg/ml) solution slowly in a 1 L beaker and then stirred for 2 h 40 min at room temperature (mole ratio of Arginase:mPEG-SPA=1:50). The mixture was then dialyzed extensively by ultra-dialysis against 15 L of PBS buffer using the F50(S) capillary dialyzer (Fresenius Medical Care, Bad Homburg, Germany) to remove all the unincorporated PEG. The mPEG-SPA uses amino groups of lysines and the N-terminus of the protein as the site of modification. In this example, the measured specific activity of the pegylated Arginase was as high as 592 I.U./mg.

[2] = ½-life determination of pegylated Arginase in vitro in human blood plasma; assay type: in vitro ADME; conditions: 37° C., 0.24 mg/ml pegylated Arginase
Description: As used herein, the term “half-life” (½-life) refers to the time that would be required for the concentration of the Arginase in human plasma in vitro, to fall by half.
Purified Arginase (1 mg) was dissolved in 1 ml of 125 mM borate buffer solution (pH 8.3) on ice. Activated PEG (mPEG-SPA, MW 5,000) (7.14 mg) was added into the protein solution slowly at a mole ratio of Arginase:PEG=1:50. The mixture was stirred on ice for 2.5 h.
Pegylated Arginase (305.6 μl) at a concentration of 1 mg/ml was added into human plasma (1 ml) and the final concentration of pegylated Arginase was 0.24 mg/ml. The mixture was divided into 20 aliquots in eppendorf tubes (65 μl mixture in each eppendorf tube) and then incubated at 37° C. A 1-2 μl portion of the mixture from each eppendorf tube was used to test the Arginase activity. In this example, the ½-life was determined to be approximately 3 days. It took about 3 days to reduce the relative activity from 100% to 50%.

B1: arginase: Recombinant human Arginase I with N-terminal 6xHis tag (SEQ ID NO: 3), produced in B. subtilis LLC101 (protein, listed as Homo sapiens)
chain: MHHHHHHMSAKSRTIGIIGAPFSKGQPRGGVEEGPTVLRKAGLLEKLKEQECDVKDYGDLPFADIPNDSPFQIVKNPRSVGKASEQLAGKVAQVKKNGRISLVLGGDHSLAIGSISGHARVHPDLGVIWVDAHTDINTPLTTTSGNLHGQPVSFLLKELKGKIPDVPGFSWVTPCISAKDIVYIGLRDVDPGEHYILKTLGIKYFSMTEVDRLGIGKVMEETLSYLLGRKKRPIHLSFDVDGLDPSFTPATGTPVVGGLTYREGLYITEEIYKTGLLSGLDIMEVNPSLGKTPEEVTRTVNTAVAITLACFGLAREGNHKPIDYLNPPK
modifications: N-terminal 6xHis tag
[1]
  specific activity: 518 I.U./mg

B2: pegylated Arginase: Arginase I modified by pegylation with mPEG-SPA MW 5,000 to increase stability and minimize immunoreactivity (protein, UniProt P05089 1-322, looked up)
Arginase-1: MSAKSRTIGIIGAPFSKGQPRGGVEEGPTVLRKAGLLEKLKEQECDVKDYGDLPFADIPNDSPFQIVKNPRSVGKASEQLAGKVAEVKKNGRISLVLGGDHSLAIGSISGHARVHPDLGVIWVDAHTDINTPLTTTSGNLHGQPVSFLLKELKGKIPDVPGFSWVTPCISAKDIVYIGLRDVDPGEHYILKTLGIKYFSMTEVDRLGIGKVMEETLSYLLGRKKRPIHLSFDVDGLDPSFTPATGTPVVGGLTYREGLYITEEIYKTGLLSGLDIMEVNPSLGKTPEEVTRTVNTAVAITLACFGLAREGNHKPIDYLNPPK
modifications: mPEG-SPA 5 kDa
[1]
  specific activity: 592 I.U./mg
[2]
  ½-life (time for relative Arginase activity to fall from 100% to 50%): approximately 3 days
